Values quoted from earlier work as cited in US20250282866A1, “TREATMENT OF DISEASES RELATED TO ATP-BINDING CASSETTE TRANSPORTER 1 DYSFUNCTION USING TREM2 AGONISTS” (VIGIL NEUROSCIENCE, INC., priority 2020, published 2025).

T1: human TREM2 (Homo sapiens, UniProt Q9NZC2)
T1 sequence (Q9NZC2 19-230): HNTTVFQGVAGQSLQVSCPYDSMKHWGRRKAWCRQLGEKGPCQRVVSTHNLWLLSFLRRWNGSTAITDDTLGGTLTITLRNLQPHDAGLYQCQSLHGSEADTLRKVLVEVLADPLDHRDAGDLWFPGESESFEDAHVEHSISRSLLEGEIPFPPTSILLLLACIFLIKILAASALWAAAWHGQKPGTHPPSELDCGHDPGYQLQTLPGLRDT


Molecular target: T1, human TREM2
Conditions: for Binding Signal (fold over 6E7 Parental antibody) 1st screen 110 nM or 10 nM: values printed without asterisk, concentration 110 nM or 10 nM (footnote a not given)

Molecule	Binding Signal (fold over 6E7 Parental antibody) 1st screen 110 nM or 10 nM	Binding Signal (fold over 6E7 Parental antibody) 2nd screen 2 nM	Binding Signal (fold over 6E7 Parental antibody) 2nd screen 10 nM
V27: 6E7 variant: VH S61A, Q99S; VL N56R (antibody, V domains shown) VH: EVQLVQSGAEVKKPGESLKISCKGSGYSFTSYWIAWVRQMPGKGLEWMGIIYPGDSDTRYAPSFQGQVTISADKSISTAYLQWSSLKASDTAMYFCVRSRTFYYDSSDYFDYWGQGTLVTVSS VL: DIQMTQSPSSVSASVGDRVTITCRASQGISSWLAWYQQKPGKAPKLLIYAASSLQRGVPSRFSGSGSGTDFTLTISSLQPEDFATYFCQQADSFPRTFGQGTKLEIK	5.50 fold over 6E7 Parental antibod	5.67 fold over 6E7 Parental antibod	5.69 fold over 6E7 Parental antibod
V39: 6E7 variant: VH T30G, S61N, Q99G; VL Q55V, F94S (antibody, V domains shown) VH: EVQLVQSGAEVKKPGESLKISCKGSGYSFGSYWIAWVRQMPGKGLEWMGIIYPGDSDTRYNPSFQGQVTISADKSISTAYLQWSSLKASDTAMYFCARGRTFYYDSSDYFDYWGQGTLVTVSS VL: DIQMTQSPSSVSASVGDRVTITCRASQGISSWLAWYQQKPGKAPKLLIYAASSLVNGVPSRFSGSGSGTDFTLTISSLQPEDFATYFCQQADSSPRTFGQGTKLEIK	6.15 fold over 6E7 Parental antibod	5.11 fold over 6E7 Parental antibod	5.81 fold over 6E7 Parental antibod
V38: 6E7 variant: VH T30G, T58V; VL L54R, F94H (antibody, V domains shown) VH: EVQLVQSGAEVKKPGESLKISCKGSGYSFGSYWIAWVRQMPGKGLEWMGIIYPGDSDVRYSPSFQGQVTISADKSISTAYLQWSSLKASDTAMYFCARQRTFYYDSSDYFDYWGQGTLVTVSS VL: DIQMTQSPSSVSASVGDRVTITCRASQGISSWLAWYQQKPGKAPKLLIYAASSRQNGVPSRFSGSGSGTDFTLTISSLQPEDFATYFCQQADSHPRTFGQGTKLEIK	4.34 fold over 6E7 Parental antibod	3.44 fold over 6E7 Parental antibod	4.36 fold over 6E7 Parental antibod
V28: 6E7 variant: VH T30Q, I50T, Y103F; VL N56S, F94L (antibody, V domains shown) VH: EVQLVQSGAEVKKPGESLKISCKGSGYSFQSYWIAWVRQMPGKGLEWMGTIYPGDSDTRYSPSFQGQVTISADKSISTAYLQWSSLKASDTAMYFCARQRTFFYDSSDYFDYWGQGTLVTVSS VL: DIQMTQSPSSVSASVGDRVTITCRASQGISSWLAWYQQKPGKAPKLLIYAASSLQSGVPSRFSGSGSGTDFTLTISSLQPEDFATYFCQQADSLPRTFGQGTKLEIK	3.08 fold over 6E7 Parental antibod	2.63 fold over 6E7 Parental antibod	3.61 fold over 6E7 Parental antibod
V36: 6E7 variant: VH I34L, Q99S; VL L54R, F94Y (antibody, V domains shown) VH: EVQLVQSGAEVKKPGESLKISCKGSGYSFTSYWLAWVRQMPGKGLEWMGIIYPGDSDTRYSPSFQGQVTISADKSISTAYLQWSSLKASDTAMYFCARSRTFYYDSSDYFDYWGQGTLVTVSS VL: DIQMTQSPSSVSASVGDRVTITCRASQGISSWLAWYQQKPGKAPKLLIYAASSRQNGVPSRFSGSGSGTDFTLTISSLQPEDFATYFCQQADSYPRTFGQGTKLEIK	3.38 fold over 6E7 Parental antibod	4.00 fold over 6E7 Parental antibod	3.44 fold over 6E7 Parental antibod
V48: 6E7 variant: VH T30G, T58V, Q99M; VL N56T, F94L (antibody, V domains shown) VH: EVQLVQSGAEVKKPGESLKISCKGSGYSFGSYWIAWVRQMPGKGLEWMGIIYPGDSDVRYSPSFQGQVTISADKSISTAYLQWSSLKASDTAMYFCARMRTFYYDSSDYFDYWGQGTLVTVSS VL: DIQMTQSPSSVSASVGDRVTITCRASQGISSWLAWYQQKPGKAPKLLIYAASSLQTGVPSRFSGSGSGTDFTLTISSLQPEDFATYFCQQADSLPRTFGQGTKLEIK	2.42 fold over 6E7 Parental antibod	2.30 fold over 6E7 Parental antibod	2.54 fold over 6E7 Parental antibod
V37: 6E7 variant: VH F29H, Q65A, Q99S; VL N56W, F94Y (antibody, V domains shown) VH: EVQLVQSGAEVKKPGESLKISCKGSGYSHTSYWIAWVRQMPGKGLEWMGIIYPGDSDTRYSPSFAGQVTISADKSISTAYLQWSSLKASDTAMYFCARSRTFYYDSSDYFDYWGQGTLVTVSS VL: DIQMTQSPSSVSASVGDRVTITCRASQGISSWLAWYQQKPGKAPKLLIYAASSLQWGVPSRFSGSGSGTDFTLTISSLQPEDFATYFCQQADSYPRTFGQGTKLEIK	3.46 fold over 6E7 Parental antibod	3.69 fold over 6E7 Parental antibod	3.49 fold over 6E7 Parental antibod
V49: 6E7 variant: VH T30N, I50T, Y60L, Q99S; VL L54R, F94Y (antibody, V domains shown) VH: EVQLVQSGAEVKKPGESLKISCKGSGYSFNSYWIAWVRQMPGKGLEWMGTIYPGDSDTRLSPSFQGQVTISADKSISTAYLQWSSLKASDTAMYFCARSRTFYYDSSDYFDYWGQGTLVTVSS VL: DIQMTQSPSSVSASVGDRVTITCRASQGISSWLAWYQQKPGKAPKLLIYAASSRQNGVPSRFSGSGSGTDFTLTISSLQPEDFATYFCQQADSYPRTFGQGTKLEIK	6.51 fold over 6E7 Parental antibod	5.02 fold over 6E7 Parental antibod	6.58 fold over 6E7 Parental antibod
V40: 6E7 variant: VH T30G, T58V, F110S; VL N56L, S93R (antibody, V domains shown) VH: EVQLVQSGAEVKKPGESLKISCKGSGYSFGSYWIAWVRQMPGKGLEWMGIIYPGDSDVRYSPSFQGQVTISADKSISTAYLQWSSLKASDTAMYFCARQRTFYYDSSDYSDYWGQGTLVTVSS VL: DIQMTQSPSSVSASVGDRVTITCRASQGISSWLAWYQQKPGKAPKLLIYAASSLQLGVPSRFSGSGSGTDFTLTISSLQPEDFATYFCQQADRFPRTFGQGTKLEIK	4.48 fold over 6E7 Parental antibod	3.41 fold over 6E7 Parental antibod	4.16 fold over 6E7 Parental antibod
